{"source": "paper PMC7568541", "key": {"[1]": {"molecular_target": "recombinant 601-positioned nucleosome core particle (X. laevis histones, 147-bp 601 DNA) (x. laevis)", "assay": "native gel or EMSA; 50 nM recombinant nucleosomes with varying SIRT6 protein; 10 mM Tris, 50 mM NaCl, 0.5 mM TCEP, 6% glycerol, pH 7.4, on ice >15 min; SYBR Safe; apparent KD, shifted complexes together as bound fraction, ligand-depleted (quadratic) fit"}, "[2]": {"molecular_target": "recombinant 601-positioned nucleosome core particle (X. laevis histones, 147-bp 601 DNA) (x. laevis)", "assay": "FRET or BRET; 1 nM Cy3-labeled nucleosomes titrated with SIRT6^(TQ3) in solution; 50 mM Tris, 50 mM NaCl, 0.5 mM TCEP, pH 7.5; KD(High) fitted from 0-5 nM (ligand-depleted), KD(Low) from 5-500 nM (specific binding)"}, "[3]": {"tested_on": "SIRT6(270-355) CTD", "assay": "EMSA", "conditions": "EMSA: 10 mM Tris, 50 mM NaCl (100 mM for DNA), 0.5 mM TCEP, 6% glycerol, pH 7.4, on ice, 50 nM NCP, FRET: 50 mM Tris, pH 7.5, 1 nM …"}, "[4]": {"molecular_target": "recombinant 601-positioned nucleosome core particle (X. laevis histones, 147-bp 601 DNA) (x. laevis)", "assay": "native gel or EMSA; TAMRA-labeled SIRT6 with NCP; TAMRA and SYBR Safe fluorescence scanned in the same gel, TAMRA signal normalized to DNA content; gel blotted for histone H3"}, "[5]": {"molecular_target": "recombinant 601-positioned nucleosome core particle (X. laevis histones, 147-bp 601 DNA) (x. laevis)", "assay": "native gel or EMSA; competition: SIRT6:NCP complexes pre-formed with 100 nM SIRT6, then competed with LANA peptide (300 nM to 100 µM); IC50 from percent inhibition"}, "[6]": {"molecular_target": "recombinant 601-positioned nucleosome core particle (X. laevis histones, 147-bp 601 DNA) (x. laevis)", "assay": "native gel or EMSA"}, "[7]": {"tested_on": "LANA peptide (Kaposi's sarcoma-associated herpesvirus)", "assay": "competition EMSA", "conditions": "EMSA: 10 mM Tris, 50 mM NaCl (100 mM for DNA), 0.5 mM TCEP, 6% glycerol, pH 7.4, on ice, 50 nM NCP, FRET: 50 mM Tris, pH 7.5, 1 nM …"}, "[8]": {"tested_on": "SIRT6(1-292)", "assay": "EMSA", "conditions": "EMSA: 10 mM Tris, 50 mM NaCl (100 mM for DNA), 0.5 mM TCEP, 6% glycerol, pH 7.4, on ice, 50 nM NCP, FRET: 50 mM Tris, pH 7.5, 1 nM …"}, "[9]": {"tested_on": "SIRT6(AAA)", "assay": "EMSA", "conditions": "EMSA: 10 mM Tris, 50 mM NaCl (100 mM for DNA), 0.5 mM TCEP, 6% glycerol, pH 7.4, on ice, 50 nM NCP, FRET: 50 mM Tris, pH 7.5, 1 nM …"}, "[10]": {"tested_on": "SIRT6", "assay": "EMSA", "conditions": "apparent, both complexes as bound, 50 nM NCP, EMSA: 10 mM Tris, 50 mM NaCl (100 mM for DNA), 0.5 mM TCEP, 6% glycerol, pH 7.4, on ice, FRET: 50 mM Tris, pH 7.5, 1 nM …"}, "[11]": {"tested_on": "SIRT6 25N mutant", "assay": "EMSA", "conditions": "apparent, n=1, EMSA: 10 mM Tris, 50 mM NaCl (100 mM for DNA), 0.5 mM TCEP, 6% glycerol, pH 7.4, on ice, 50 nM NCP, FRET: 50 mM Tris, pH 7.5, 1 nM …"}, "[12]": {"tested_on": "SIRT6(1-301)", "assay": "EMSA", "conditions": "139 nM in text, EMSA: 10 mM Tris, 50 mM NaCl (100 mM for DNA), 0.5 mM TCEP, 6% glycerol, pH 7.4, on ice, 50 nM NCP, FRET: 50 mM Tris, pH 7.5, 1 nM …"}, "[13]": {"tested_on": "SIRT6 27R mutant", "assay": "EMSA", "conditions": "apparent, n=1, EMSA: 10 mM Tris, 50 mM NaCl (100 mM for DNA), 0.5 mM TCEP, 6% glycerol, pH 7.4, on ice, 50 nM NCP, FRET: 50 mM Tris, pH 7.5, 1 nM …"}, "[14]": {"tested_on": "LANA peptide (Kaposi's sarcoma-associated herpesvirus)", "assay": "competition EMSA", "conditions": "EMSA: 10 mM Tris, 50 mM NaCl (100 mM for DNA), 0.5 mM TCEP, 6% glycerol, pH 7.4, on ice, 50 nM NCP, FRET: 50 mM Tris, pH 7.5, 1 nM …", "remark": "listed apart in the source"}, "[15]": {"molecular_target": "nucleosome core particle with four alanine mutations at the H2A acidic patch (x. laevis)", "assay": "native gel or EMSA; 50 nM recombinant nucleosomes with varying SIRT6 protein; 10 mM Tris, 50 mM NaCl, 0.5 mM TCEP, 6% glycerol, pH 7.4, on ice >15 min; SYBR Safe; apparent KD, shifted complexes together as bound fraction, ligand-depleted (quadratic) fit"}, "[16]": {"tested_on": "SIRT6(TQ3)", "assay": "FRET", "conditions": "EMSA: 10 mM Tris, 50 mM NaCl (100 mM for DNA), 0.5 mM TCEP, 6% glycerol, pH 7.4, on ice, 50 nM NCP, FRET: 50 mM Tris, pH 7.5, 1 nM …"}, "[17]": {"molecular_target": "NCP with the high affinity site saturated with full-length SIRT6 (1:1 SIRT6:NCP complex) (x. laevis | not stated) (UniProt Q8N6T7)", "assay": "native gel or EMSA; high affinity site on NCPs saturated with 10 nM full-length SIRT6, then increasing SIRT6^(1–292); fraction bound from the loss of free nucleosomes"}}, "data": [{"substance": "SIRT6 C-terminal domain (residues 270–355) (from UniProt Q8N6T7 270-355) (domain or fragment)", "values": [{"measurement": "Kd", "setting": "[1]", "value": 400, "unit": "nM"}]}, {"substance": "SIRT6 with alanine substitutions at S45, N206 and N208 (from UniProt Q8N6T7 2-355) (enzyme)", "values": [{"measurement": "Kd", "setting": "[1]", "value": 97, "unit": "nM"}]}, {"substance": "SIRT6 labeled with Tide Quencher 3 (TQ3) at cysteine 18 (from UniProt Q8N6T7 2-355) (enzyme)", "values": [{"measurement": "KD(High), high affinity site", "setting": "[2]", "value": 0.46, "unit": "nM"}, {"measurement": "KD(Low), low affinity site", "setting": "[2]", "value": 30, "unit": "nM"}]}, {"substance": "601 DNA (147 bp)", "values": [{"measurement": "Kd", "setting": "[3]; 100 mM NaCl, 50 nM DNA", "value": 450, "unit": "nM"}]}, {"substance": "SIRT6 labeled with tetramethylrhodamine (TAMRA) at cysteine 320 (from UniProt Q8N6T7 2-355) (enzyme)", "values": [{"measurement": "stoichiometry N", "setting": "[4]", "value": 2}]}, {"substance": "Latency Associated Nuclear Antigen (LANA) peptide from Kaposi’s sarcoma-associated herpesvirus", "values": [{"measurement": "IC50", "setting": "[5]", "value": 9500, "unit": "nM"}, {"measurement": "IC50", "setting": "[6]", "value": 6100, "unit": "nM"}]}, {"substance": "NCP (601, 147 bp)", "values": [{"measurement": "IC50", "setting": "[7]", "value": 9500, "unit": "nM"}, {"measurement": "Kd", "setting": "[3]", "value": 400, "unit": "nM"}, {"measurement": "Kd", "setting": "[8]; 254 nM in text", "value": 250, "unit": "nM"}, {"measurement": "Kd", "setting": "[8]", "value": 40, "unit": "nM"}, {"measurement": "Kd", "setting": "[9]", "value": 97, "unit": "nM"}, {"measurement": "Kd", "setting": "[10]", "value": 13, "unit": "nM"}, {"measurement": "Kd", "setting": "[11]", "value": 14, "unit": "nM"}, {"measurement": "Kd", "setting": "[12]", "value": 140, "unit": "nM"}, {"measurement": "Kd", "setting": "[13]", "value": 14, "unit": "nM"}, {"measurement": "IC50", "setting": "[14]", "value": 6100, "unit": "nM"}]}, {"substance": "SIRT6 (full-length, His-tagged) (from UniProt Q8N6T7 1-355) (enzyme)", "values": [{"measurement": "Kd", "setting": "[15]", "value": 140, "unit": "nM"}, {"measurement": "Kd", "setting": "[1]", "value": 13, "unit": "nM"}]}, {"substance": "NCP(Cy3)", "values": [{"measurement": "Kd", "setting": "[16]; high-affinity site", "value": 0.46, "unit": "nM"}, {"measurement": "Kd", "setting": "[16]; low-affinity site", "value": 30, "unit": "nM"}]}, {"substance": "SIRT6 residues 1–292 (C-terminal truncation) (from UniProt Q8N6T7 1-292) (domain or fragment)", "values": [{"measurement": "KD(Low), low affinity site", "setting": "[17]", "value": 40, "unit": "nM"}, {"measurement": "Kd", "setting": "[1]", "value": 250, "unit": "nM"}, {"measurement": "stoichiometry N", "setting": "[1]", "value": 2}]}, {"substance": "SIRT6 residues 1–301 (C-terminal truncation) (from UniProt Q8N6T7 1-301) (domain or fragment)", "values": [{"measurement": "Kd", "setting": "[1]", "value": 140, "unit": "nM"}, {"measurement": "stoichiometry N", "setting": "[1]", "value": 2}]}]}
